# Results: the supplement of paper PMC9112550, “Optimization of the antimicrobial peptide Bac7 by deep mutational scanning” (BMC Biology, 2022)
# Tested on: Escherichia coli TOP10
# Experiment: shrunken log2 fold change of peptide-encoding DNA abundance (4.5 h post-induction vs induction); higher = less antimicrobial activity (less host growth inhibition)
# Settings: time post-induction: 4.5 h; library: site-saturation at positions 5, 18, 19, 20
# 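Further: peptides expressed intracellularly from a pBAD plasmid library in pooled LB shake-flask culture, induced with 0.3% L-arabinose, DNA abundance read by NGS, three biological replicates, DESeq2 with apeglm shrinkage.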
row,Sequence,shrunken log2 fold change
1,RRIRDRPPRLPRPRPRPLEFPRP,-0.158
2,RRIRRRPPRLPRPRPRPRCHPRP,0.127
3,RRIRCRPPRLPRPRPRPHWCPRP,-0.155
4,RRIRARPPRLPRPRPRPIGYPRP,-0.0969
5,RRIRSRPPRLPRPRPRPMCDPRP,-0.147
6,RRIRMRPPRLPRPRPRPESLPRP,1.69
7,RRIRMRPPRLPRPRPRPADHPRP,0.173
8,RRIRYRPPRLPRPRPRPKIIPRP,-1.21
9,RRIRCRPPRLPRPRPRPCDIPRP,-0.0278
10,RRIRWRPPRLPRPRPRPENNPRP,-0.0683
11,RRIRARPPRLPRPRPRPDNGPRP,-0.19
12,RRIRQRPPRLPRPRPRPCPIPRP,0.0347
13,RRIRGRPPRLPRPRPRPCQMPRP,0.215
14,RRIRNRPPRLPRPRPRPYVPPRP,-0.0142
15,RRIRERPPRLPRPRPRPIRNPRP,-0.343
16,RRIRMRPPRLPRPRPRPAISPRP,0.0806
17,RRIRMRPPRLPRPRPRPGYHPRP,0.0695
18,RRIRIRPPRLPRPRPRPPSQPRP,0.258
19,RRIRIRPPRLPRPRPRPRSGPRP,0.242
20,RRIRARPPRLPRPRPRPCWVPRP,0.237
21,RRIRDRPPRLPRPRPRPKCAPRP,0.169
22,RRIRNRPPRLPRPRPRPKCCPRP,-0.0855
23,RRIRARPPRLPRPRPRPDLTPRP,0.198
24,RRIRPRPPRLPRPRPRPRQRPRP,0.382
25,RRIRVRPPRLPRPRPRPHMSPRP,-0.405

row,Sequence,shrunken log2 fold change
1,RRIRMRPPRLPRPRPRPCPVPRP,0.0171
2,RRIRMRPPRLPRPRPRPPLNPRP,0.584
3,RRIRHRPPRLPRPRPRPKRRPRP,0.116
4,RRIRIRPPRLPRPRPRPVGGPRP,0.0792
5,RRIRTRPPRLPRPRPRPVGTPRP,-0.201
6,RRIRKRPPRLPRPRPRPQFVPRP,-0.0281
7,RRIRWRPPRLPRPRPRPLVMPRP,0.000565
8,RRIRHRPPRLPRPRPRPSELPRP,0.0169
9,RRIRKRPPRLPRPRPRPDKYPRP,-0.309
10,RRIRMRPPRLPRPRPRPIVEPRP,0.456
11,RRIRYRPPRLPRPRPRPQMDPRP,-0.801
12,RRIRGRPPRLPRPRPRPAYNPRP,-0.34
13,RRIRDRPPRLPRPRPRPEVRPRP,1.91
14,RRIRERPPRLPRPRPRPREIPRP,0.214
15,RRIRSRPPRLPRPRPRPVLQPRP,0.371
16,RRIRHRPPRLPRPRPRPRMKPRP,-0.223
17,RRIRNRPPRLPRPRPRPRNVPRP,-0.3
18,RRIRVRPPRLPRPRPRPPMQPRP,0.152
19,RRIRCRPPRLPRPRPRPPKWPRP,0.447
20,RRIRERPPRLPRPRPRPYLWPRP,-0.431
21,RRIRYRPPRLPRPRPRPACGPRP,-0.145
22,RRIRRRPPRLPRPRPRPVAFPRP,0.383
23,RRIRHRPPRLPRPRPRPHILPRP,-0.084
24,RRIRCRPPRLPRPRPRPRMNPRP,-0.096
25,RRIRMRPPRLPRPRPRPGTRPRP,0.675

row,Sequence,shrunken log2 fold change
1,RRIRMRPPRLPRPRPRPIFFPRP,0.276
2,RRIRARPPRLPRPRPRPSKFPRP,-0.163
3,RRIRVRPPRLPRPRPRPGHDPRP,-0.116
4,RRIRARPPRLPRPRPRPGFKPRP,-0.02
5,RRIRMRPPRLPRPRPRPKCMPRP,0.745
6,RRIRPRPPRLPRPRPRPDAVPRP,0.325
7,RRIRCRPPRLPRPRPRPTDQPRP,0.38
8,RRIRGRPPRLPRPRPRPPMRPRP,1.39
9,RRIRHRPPRLPRPRPRPAHIPRP,-0.0784
10,RRIRHRPPRLPRPRPRPMCGPRP,-0.181
11,RRIRDRPPRLPRPRPRPWVGPRP,0.0332
12,RRIRDRPPRLPRPRPRPYLTPRP,-0.0558
13,RRIRQRPPRLPRPRPRPYFKPRP,-0.454
14,RRIRCRPPRLPRPRPRPWIDPRP,-0.00146
15,RRIRHRPPRLPRPRPRPFKQPRP,-0.0287
16,RRIRLRPPRLPRPRPRPWFDPRP,-0.365
17,RRIRTRPPRLPRPRPRPCIKPRP,-0.476
18,RRIRWRPPRLPRPRPRPNTSPRP,-0.336
19,RRIRGRPPRLPRPRPRPANTPRP,0.152
20,RRIRNRPPRLPRPRPRPWFVPRP,-0.429
21,RRIRDRPPRLPRPRPRPEFCPRP,1.14
22,RRIRERPPRLPRPRPRPCYMPRP,-0.0163
23,RRIRVRPPRLPRPRPRPHFMPRP,1.55
24,RRIRTRPPRLPRPRPRPPMLPRP,0.0279
25,RRIRQRPPRLPRPRPRPAGMPRP,-0.148

row,Sequence,shrunken log2 fold change
1,RRIRVRPPRLPRPRPRPTHGPRP,-0.235
2,RRIRERPPRLPRPRPRPFDRPRP,-0.0163
3,RRIRWRPPRLPRPRPRPEGPPRP,0.438
4,RRIRARPPRLPRPRPRPSAAPRP,0.848
5,RRIRPRPPRLPRPRPRPTEIPRP,0.000528
6,RRIRERPPRLPRPRPRPMMNPRP,-0.122
7,RRIRPRPPRLPRPRPRPSRTPRP,0.198
8,RRIRYRPPRLPRPRPRPAKMPRP,-0.329
9,RRIRLRPPRLPRPRPRPFHKPRP,-0.54
10,RRIRLRPPRLPRPRPRPQYNPRP,-0.791
11,RRIRKRPPRLPRPRPRPLIDPRP,0.449
12,RRIRARPPRLPRPRPRPPPWPRP,1.03
13,RRIRPRPPRLPRPRPRPVCPPRP,0.0159
14,RRIRYRPPRLPRPRPRPRIHPRP,-0.287
15,RRIRHRPPRLPRPRPRPTDLPRP,-0.154
16,RRIRVRPPRLPRPRPRPAQDPRP,0.0947
17,RRIRHRPPRLPRPRPRPERWPRP,0.357
18,RRIRCRPPRLPRPRPRPMVQPRP,-0.292
19,RRIRCRPPRLPRPRPRPGQHPRP,0.00766
20,RRIRCRPPRLPRPRPRPHFTPRP,-0.677
21,RRIRARPPRLPRPRPRPNRCPRP,0.0646
22,RRIRRRPPRLPRPRPRPRQMPRP,0.313
23,RRIRLRPPRLPRPRPRPMEKPRP,0.0493
24,RRIRQRPPRLPRPRPRPLNHPRP,0.133
25,RRIRGRPPRLPRPRPRPMVNPRP,0.744

row,Sequence,shrunken log2 fold change
1,RRIRQRPPRLPRPRPRPNMNPRP,-0.528
2,RRIRLRPPRLPRPRPRPEGKPRP,-0.00133
3,RRIRDRPPRLPRPRPRPYWFPRP,-0.579
4,RRIRWRPPRLPRPRPRPDMQPRP,0.337
5,RRIRDRPPRLPRPRPRPTTEPRP,0.578
6,RRIRERPPRLPRPRPRPKCHPRP,-0.428
7,RRIRARPPRLPRPRPRPGWYPRP,0.437
8,RRIRSRPPRLPRPRPRPHQNPRP,-0.0421
9,RRIRTRPPRLPRPRPRPNGFPRP,-0.0646
10,RRIRTRPPRLPRPRPRPEIIPRP,0.095
11,RRIRERPPRLPRPRPRPGVEPRP,-0.194
12,RRIRERPPRLPRPRPRPPVIPRP,-0.257
13,RRIRPRPPRLPRPRPRPSFDPRP,-0.248
14,RRIRWRPPRLPRPRPRPFGMPRP,-0.283
15,RRIRNRPPRLPRPRPRPVCFPRP,-0.162
16,RRIRCRPPRLPRPRPRPHASPRP,-0.224
17,RRIRKRPPRLPRPRPRPSHEPRP,-0.218
18,RRIRSRPPRLPRPRPRPGMVPRP,0.23
19,RRIRIRPPRLPRPRPRPWDIPRP,-0.00968
20,RRIRTRPPRLPRPRPRPQWTPRP,-1.27
21,RRIRRRPPRLPRPRPRPTPVPRP,0.969
22,RRIRHRPPRLPRPRPRPVFRPRP,0.0291
23,RRIRMRPPRLPRPRPRPRTLPRP,0.28
24,RRIRQRPPRLPRPRPRPRSIPRP,-0.0928
25,RRIRTRPPRLPRPRPRPLMDPRP,-0.0405

row,Sequence,shrunken log2 fold change
1,RRIRNRPPRLPRPRPRPYTEPRP,-0.695
2,RRIRWRPPRLPRPRPRPSIRPRP,-0.613
3,RRIRVRPPRLPRPRPRPLFAPRP,0.477
4,RRIRCRPPRLPRPRPRPWISPRP,-0.085
5,RRIRGRPPRLPRPRPRPMMHPRP,0.456
6,RRIRCRPPRLPRPRPRPHYRPRP,0.127
7,RRIRSRPPRLPRPRPRPVRIPRP,-0.239
8,RRIRNRPPRLPRPRPRPWNEPRP,-0.233
9,RRIRTRPPRLPRPRPRPMPKPRP,0.116
10,RRIRQRPPRLPRPRPRPDPYPRP,0.032
11,RRIRNRPPRLPRPRPRPNWYPRP,-0.647
12,RRIRMRPPRLPRPRPRPPRIPRP,0.226
13,RRIRIRPPRLPRPRPRPMVIPRP,-0.154
14,RRIRQRPPRLPRPRPRPSCDPRP,0.0694
15,RRIRFRPPRLPRPRPRPWWFPRP,-0.395
16,RRIRMRPPRLPRPRPRPFKMPRP,0.0516
17,RRIRHRPPRLPRPRPRPMLHPRP,0.195
18,RRIRQRPPRLPRPRPRPWTAPRP,-0.264
19,RRIRFRPPRLPRPRPRPCVGPRP,-0.433
20,RRIRSRPPRLPRPRPRPIDEPRP,0.0325
21,RRIRYRPPRLPRPRPRPTVLPRP,0.00488
22,RRIRERPPRLPRPRPRPEFKPRP,0.114
23,RRIRSRPPRLPRPRPRPMTDPRP,-0.222
24,RRIRYRPPRLPRPRPRPCAAPRP,-0.642
25,RRIRTRPPRLPRPRPRPWFCPRP,-0.392
